Tests used:
[1] = target: T1, Recombinant His-tagged HP1γ (human, UniProt Q13185 1-183); assay: pull-down; His-tagged HP1γ forms incubated with GST-KDM2A fragments in 300 mM NaCl, 50 mM Na-phosphate pH 7.0, 4 °C 1 h; collected on TALON resin (1% NP40 washes); SDS-PAGE; settings: both partners purified
T1 construct: HP1γ, human; the cDNA used encodes 183 amino acids; pCold I vector; also called His-HP1γ; His-tag HP1γ; source: E. coli DH5α (pCold I), isolated with TALON His-tag resin, dialysed

[2] = target: T2, Recombinant His-tagged HP1γ (CSD) (human, UniProt Q13185 110-183); assay: as above; settings: both partners purified
T2 construct: HP1γ, human, chromoshadow domain construct, amino acids 110-183; Limits 110-183 are those printed for the HP1γ (CSD) cDNA; the His-tag plasmids are described only as 'His-tag HP1γ and its mutants'; also called CSD of HP1γ; His-HP1γ mutant; source: E. coli DH5α (pCold I), isolated with TALON His-tag resin, dialysed
T2 sequence (Q13185 110-183): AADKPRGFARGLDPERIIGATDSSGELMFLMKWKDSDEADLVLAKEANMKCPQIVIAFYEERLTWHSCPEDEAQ

T1 sequence (Q13185 whole entry, the tested form may be a part): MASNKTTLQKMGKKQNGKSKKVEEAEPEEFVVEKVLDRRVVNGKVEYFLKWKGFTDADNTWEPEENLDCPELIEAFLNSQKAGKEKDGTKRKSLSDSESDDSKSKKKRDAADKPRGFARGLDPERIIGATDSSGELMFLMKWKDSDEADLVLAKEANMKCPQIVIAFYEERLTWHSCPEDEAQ

binding result [1]: binds
binding result [2]: binds
B1: recombinant KDM2A fragment (amino acids 785–817) fused with GST (domain or fragment, UniProt Q9Y2K7 785-817, looked up)
chain: ELSEVEKAKIRGSYLTVTLQRPTKELHGTSIVP
notes: also called GST-KDM2A fragment; source: E. coli DH5α (pGEX-3X), isolated on glutathione-Sepharose, dialysed

Reference: paper PMC6677663, “KDM2A-dependent reduction of rRNA transcription on glucose starvation requires HP1 in cells, including triple-negative breast cancer cells” (Oncotarget, 2019)
